The values below come from paper PMC6850650, “Superfolder mTurquoise2^ox optimized for the bacterial periplasm allows high efficiency in vivo FRET of cell division antibiotic targets” (Molecular Microbiology, 2019).

Assay in all cases: FRET or BRET; in vivo in the periplasm of E. coli; donor sfTq2 or sfTq2^ox, acceptor mNG, each fused to one partner; emission spectra taken with a fluorometer and unmixed, EfA from sensitised emission; PBP5 dimerisation in CS109 ΔdacA, controls in LMC500 and CS109 ΔdacA
Data set [1] deals with the molecule itself.
Another data set concerns the target T1, FtsB-mNG (E. coli, UniProt P0A6S5 1-103).
T1 construct: cell division protein FtsB of E. coli; The end of the FP is read from the printed name; also called wild-type FtsB-mNG; source: E. coli, from plasmid, in the cells (FP in the periplasm); not shown: mNeongreen, C-terminal, kept
T1 sequence (looked up): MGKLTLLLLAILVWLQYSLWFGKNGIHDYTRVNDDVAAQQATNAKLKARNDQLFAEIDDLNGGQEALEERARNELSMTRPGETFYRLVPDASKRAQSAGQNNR
The conditions noted are these: partners not purified.

In another data set the target is T2, FtsL-mNG (E. coli, UniProt P0AEN4 1-121).
T2 construct: cell division protein FtsL of E. coli; The end of the FP is read from the printed name FtsL-mNG; source: E. coli, from plasmid, in the cells (FP in the periplasm); not shown: mNeongreen, C-terminal, kept
T2 sequence (looked up): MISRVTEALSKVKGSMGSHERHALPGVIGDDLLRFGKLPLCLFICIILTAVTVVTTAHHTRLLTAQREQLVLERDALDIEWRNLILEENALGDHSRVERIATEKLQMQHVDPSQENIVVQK
The conditions noted are these: partners not purified.

B1: PBP5 (D,D-carboxypeptidase) fused to sfTq2 (donor copy) or mNeongreen (acceptor copy) (enzyme, E. coli, UniProt P0AEB2 30-403, looked up)
chain: DDLNIKTMIPGVPQIDAESYILIDYNSGKVLAEQNADVRRDPASLTKMMTSYVIGQAMKAGKFKETDLVTIGNDAWATGNPVFKGSSLMFLKPGMQVPVSQLIRGINLQSGNDACVAMADFAAGSQDAFVGLMNSYVNALGLKNTHFQTVHGLDADGQYSSARDMALIGQALIRDVPNEYSIYKEKEFTFNGIRQLNRNGLLWDNSLNVDGIKTGHTDKAGYNLVASATEGQMRLISAVMGGRTFKGREAESKKLLTWGFRFFETVNPLKVGKEFASEPVWFGDSDRASLGVDKDVYLTIPRGRMKDLKASYVLNSSELHAPLQKNQVVGTINFQLDGKTIEQRPLVVLQEIPEGNFFGKIIDYIKLMFHHWFG
notes: PBP5 (D,D-carboxypeptidase, encoded by dacA) of E. coli; Self-association measured between two differently fused copies (sfTq2-PBP5 and mNG-PBP5); PBP5's own signal peptide is probably replaced by that of DsbA (surmised); also called sfTq2-PBP5; DsbA^ss-FP-PBP5; source: E. coli CS109 ΔdacA, from plasmid, in the periplasm of the cells; not shown: sfTq2 (on the donor copy), N-terminal, kept; …
As for B1, in data set [1], the “EfA (FRET efficiency)” value is 4.2%.

B2: PBP5^S44G (inactive mutant) fused to sfTq2 (donor copy) or mNeongreen (acceptor copy) (enzyme, E. coli, UniProt P0AEB2 30-403, looked up)
chain: DDLNIKTMIPGVPQIDAESYILIDYNSGKVLAEQNADVRRDPAGLTKMMTSYVIGQAMKAGKFKETDLVTIGNDAWATGNPVFKGSSLMFLKPGMQVPVSQLIRGINLQSGNDACVAMADFAAGSQDAFVGLMNSYVNALGLKNTHFQTVHGLDADGQYSSARDMALIGQALIRDVPNEYSIYKEKEFTFNGIRQLNRNGLLWDNSLNVDGIKTGHTDKAGYNLVASATEGQMRLISAVMGGRTFKGREAESKKLLTWGFRFFETVNPLKVGKEFASEPVWFGDSDRASLGVDKDVYLTIPRGRMKDLKASYVLNSSELHAPLQKNQVVGTINFQLDGKTIEQRPLVVLQEIPEGNFFGKIIDYIKLMFHHWFG
notes: PBP5 (D,D-carboxypeptidase, encoded by dacA) of E. coli with S44G; Self-association measured between two differently fused copies; source: E. coli CS109 ΔdacA, from plasmid, in the periplasm of the cells; not shown: sfTq2 (on the donor copy), N-terminal, kept; mNeongreen (on the acceptor copy), N-terminal, kept
For the molecule B2, in data set [1], the “EfA (FRET efficiency)” value was found to be 8.8%.

B3: FtsL-sfTq2^ox (natural protein, E. coli, UniProt P0AEN4 1-121, looked up)
chain: MISRVTEALSKVKGSMGSHERHALPGVIGDDLLRFGKLPLCLFICIILTAVTVVTTAHHTRLLTAQREQLVLERDALDIEWRNLILEENALGDHSRVERIATEKLQMQHVDPSQENIVVQK
notes: cell division protein FtsL of E. coli; The end of the FP is read from the printed name; source: E. coli, from plasmid, in the cells (FP in the periplasm); not shown: sfTq2^ox, C-terminal, kept
For B3, the “EfA (FRET efficiency)” value with FtsB-mNG was 15.6%.

B4: FtsB-sfTq2^ox (natural protein, E. coli, UniProt P0A6S5 1-103, looked up)
chain: MGKLTLLLLAILVWLQYSLWFGKNGIHDYTRVNDDVAAQQATNAKLKARNDQLFAEIDDLNGGQEALEERARNELSMTRPGETFYRLVPDASKRAQSAGQNNR
notes: cell division protein FtsB of E. coli; The end of the FP is read from the printed name FtsB-sfTq2^ox; source: E. coli, from plasmid, in the cells (FP in the periplasm); not shown: sfTq2^ox, C-terminal, kept
In the case of B4, the “EfA (FRET efficiency)” value in the data set with FtsL-mNG came to 19.2%.
